# B1: F1*; the commonest letter at each place (parent)
# chain: GAGACCGCAACTGAAAAGTTGTTATCACTTGTCGTAAGACACTTTGGATGGGTTGAAGTTCTGCACGTAGAAGCAAAAGGC
# Variants of: B1
# Assay: fraction ligated after 30 min (ligated reads / total reads); higher = more ligase activity
# Conditions: with F1*sub RNA substrate (template-directed ligation), 42 °C
# Method: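 Chip-synthesised pool of F1* ligase ribozyme variants (all single and double substitutions, single, double and triple deletions in the catalytic core and GAA bulge, plus designed variants) was transcribed with T7 and reacted as a pool with excess substrate F1*sub for 30 min at 42 C in 50 mM EPPS pH 8.5, 25 mM MgCl2. Ligated and unligated bands were separated by PAGE, barcoded by RT and deep sequenced; fraction ligated = ligated reads / total reads per variant, relative activity = FL / FL of wild type (0.826). Sequences are the DNA template of the ribozyme.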
row,Variant,fraction ligated
1,T25C A39T,0.766
2,T25C A39G,0.786
3,T25C A39C,0.741
4,T25G A48G,0.291
5,T25G A48T,0.818
6,T25G A48C,0.819
7,T25A G34C,0.521
8,T25A G34T,0.718
9,T25A G34A,0.724
10,C26A C42G,0.731
11,C26A C42A,0.773
12,C26A C42T,0.793
13,T25C T49A,0.777
14,T25C T49C,0.757
15,T25C T49G,0.777
16,T25C,0.759
17,T25G,0.784
18,T25A,0.749
19,T25A A48G,0.459
20,T25A A48C,0.752
21,T25A A48T,0.822
22,T25A T43G,0.624
23,T25A T43C,0.286
24,T25A T43A,0.463

row,Variant,fraction ligated
1,C26A A37C,0.781
2,C26A A37G,0.785
3,C26A A37T,0.797
4,A24T T45C,0.0212
5,A24T T45A,0.0698
6,A24T T45G,0.0472
7,T25C C26T,0.813
8,T25C C26G,0.0807
9,T25C C26A,0.0548
10,T25A G47T,0.253
11,T25A G47C,0.0196
12,T25A G47A,0.462
13,T25A G31T,0.0308
14,T25A G31C,0.034
15,T25A G31A,0.0494
16,T25A A27T,0.371
17,T25A A27G,0.372
18,T25A A27C,0.266
19,T25G T35C,0.785
20,T25G T35G,0.804
21,T25G T35A,0.787
22,T25G A41G,0.492
23,T25G A41C,0.0915
24,T25G A41T,0.662

row,Variant,fraction ligated
1,A24T T29G,0.716
2,A24T T29C,0.6
3,A24T T29A,0.789
4,T25C A41C,0.517
5,T25C A41G,0.757
6,T25C A41T,0.82
7,T25C G38T,0.747
8,T25C G38A,0.803
9,T25C G38C,0.0674
10,T25A A57G,0.345
11,T25A A57C,0.199
12,T25A A57T,0.252
13,C26A A27C,0.842
14,C26A A27T,0.747
15,C26A A27G,0.747
16,T25G C40T,0.732
17,T25G C40G,0.58
18,T25G C40A,0.229
19,T25G T30C,0.372
20,T25G T30G,0.776
21,T25G T30A,0.674
22,C26A C40A,0.755
23,C26A C40G,0.793
24,C26A C40T,0.814

row,Variant,fraction ligated
1,T25A C40T,0.647
2,T25A C40G,0.256
3,T25A C40A,0.134
4,T25G G38T,0.659
5,T25G G38A,0.676
6,T25G G38C,0.165
7,C26A A39T,0.721
8,C26A A39C,0.627
9,C26A A39G,0.75
10,T25A A41T,0.587
11,T25A A41G,0.419
12,T25A A41C,0.0344
13,T25G G47T,0.102
14,T25G G47A,0.363
15,T25G G47C,0.242
16,T25G T49C,0.527
17,T25G T49G,0.779
18,T25G T49A,0.723
19,T25G T43A,0.684
20,T25G T43G,0.515
21,T25G T43C,0.409
22,T25G A36G,0.795
23,T25G A36C,0.77
24,T25G A36T,0.795

row,Variant,fraction ligated
1,A24T T44A,0.772
2,A24T T44G,0.196
3,A24T T44C,0.778
4,C26A,0.788
5,T25C A57G,0.711
6,T25C A57C,0.563
7,T25C A57T,0.682
8,T25G A37T,0.808
9,T25G A37C,0.757
10,T25G A37G,0.806
11,T25G A39G,0.759
12,T25G A39C,0.373
13,T25G A39T,0.393
14,T25A A56T,0.0445
15,T25A A56G,0.0269
16,T25A A56C,0.0125
17,T25A C42G,0.553
18,T25A C42A,0.653
19,T25A C42T,0.785
20,T25A G50A,0.225
21,T25A G50C,0.267
22,T25A G50T,0.536
23,T25A A39C,0.223
24,T25A A39T,0.255

row,Variant,fraction ligated
1,T25A A39G,0.751
2,T25C C33G,0.144
3,T25C C33A,0.77
4,T25C C33T,0.786
5,T25C T30A,0.75
6,T25C T30C,0.751
7,T25C T30G,0.162
8,T25A T32G,0.13
9,T25A T32A,0.094
10,T25A T32C,0.145
11,T25G A56T,0.0925
12,T25G A56C,0.0423
13,T25G A56G,0.0638
14,C26A A48G,0.123
15,C26A A48T,0.00798
16,C26A A48C,0.366
17,C26A G46A,0.73
18,T25C A37C,0.766
19,T25C A37T,0.784
20,T25C A37G,0.812
21,T25G C33G,0.535
22,T25G C33A,0.526
23,T25G C33T,0.704
24,A24T T25A,0.735

row,Variant,fraction ligated
1,A24T T25C,0.779
2,A24T T25G,0.722
3,C26A G34T,0.808
4,C26A G34A,0.786
5,C26A G34C,0.805
6,T25A A37C,0.744
7,T25A A37T,0.776
8,T25A A37G,0.772
9,A24T G50T,0.535
10,A24T G50C,0.295
11,T25C G31A,0.742
12,T25C G31C,0.53
13,T25C G31T,0.546
14,C26A G38A,0.774
15,C26A G38T,0.793
16,C26A G38C,0.313
17,T25A T30C,0.218
18,T25A T30G,0.461
19,T25A T30A,0.32
20,T25C T32G,0.707
21,T25C T32A,0.745
22,T25C T32C,0.762
23,A24T T35A,0.808

# Source: the supplement of paper PMC6755084
